Data on 2 substances can be found in paper PMC2909360.

By stoichiometry N is commonly meant a count of units in the complex or per binding partner.

Test [1] addresses purified bovine cathepsin B (bovine).
Test [2] has as its target recombinant human cathepsin S (human) (UniProt P25774).
The target of test [3] is purified bovine cathepsin C (bovine).
For test [4], the target named is T1, purified human cathepsin H (human).
T1 sequence (P09668 116-335, looked up): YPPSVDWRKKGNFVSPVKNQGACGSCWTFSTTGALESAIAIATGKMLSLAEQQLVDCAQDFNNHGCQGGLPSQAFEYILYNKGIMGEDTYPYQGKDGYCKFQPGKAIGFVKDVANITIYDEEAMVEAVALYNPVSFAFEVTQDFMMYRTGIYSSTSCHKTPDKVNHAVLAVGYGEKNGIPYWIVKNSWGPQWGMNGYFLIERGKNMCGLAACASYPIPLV

The target of test [5] is T2, purified papain (UniProt P00784).
T2 sequence: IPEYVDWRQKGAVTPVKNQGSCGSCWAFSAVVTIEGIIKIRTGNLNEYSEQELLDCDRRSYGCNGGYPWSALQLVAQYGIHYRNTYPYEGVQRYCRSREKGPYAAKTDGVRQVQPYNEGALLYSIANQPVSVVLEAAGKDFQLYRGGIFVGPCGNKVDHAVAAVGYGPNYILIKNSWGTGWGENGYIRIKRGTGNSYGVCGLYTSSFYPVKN

Test [6] addresses recombinant human cathepsin L (human) (UniProt P07711).
The target of test [7] is sialostatin L (Ixodes scapularis) (UniProt Q8MVB6). The test is described as follows: crystal structure.

purified chicken egg white cystatin, sequence (P01038 24-139): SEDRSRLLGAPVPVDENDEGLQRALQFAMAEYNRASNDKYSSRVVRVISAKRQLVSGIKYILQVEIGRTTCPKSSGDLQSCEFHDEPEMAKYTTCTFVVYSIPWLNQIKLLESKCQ
recombinant human cathepsin L (human), sequence (P07711 18-333): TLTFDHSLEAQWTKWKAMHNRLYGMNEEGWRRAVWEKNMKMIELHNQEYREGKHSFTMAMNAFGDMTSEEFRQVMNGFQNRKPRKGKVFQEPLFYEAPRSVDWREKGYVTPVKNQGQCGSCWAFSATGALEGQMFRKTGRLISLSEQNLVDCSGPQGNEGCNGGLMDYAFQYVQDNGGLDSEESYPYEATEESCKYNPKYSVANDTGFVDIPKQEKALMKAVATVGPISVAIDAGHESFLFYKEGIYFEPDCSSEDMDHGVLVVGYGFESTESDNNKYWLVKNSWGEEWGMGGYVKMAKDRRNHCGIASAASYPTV
purified bovine cathepsin C (bovine), sequence (Q3ZCJ8 25-463): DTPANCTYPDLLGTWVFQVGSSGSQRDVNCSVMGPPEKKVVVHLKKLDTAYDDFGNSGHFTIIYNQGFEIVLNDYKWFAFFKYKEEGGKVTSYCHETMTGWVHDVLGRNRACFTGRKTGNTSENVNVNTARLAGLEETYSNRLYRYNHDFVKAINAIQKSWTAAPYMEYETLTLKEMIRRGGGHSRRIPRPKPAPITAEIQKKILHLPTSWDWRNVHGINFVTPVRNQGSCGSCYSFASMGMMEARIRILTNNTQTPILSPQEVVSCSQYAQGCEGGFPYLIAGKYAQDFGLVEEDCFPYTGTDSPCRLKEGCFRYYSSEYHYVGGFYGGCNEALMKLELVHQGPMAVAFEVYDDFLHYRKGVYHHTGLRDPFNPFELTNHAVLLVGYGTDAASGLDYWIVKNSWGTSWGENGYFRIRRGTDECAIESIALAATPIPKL
recombinant human cathepsin S (human), sequence (P25774 17-331): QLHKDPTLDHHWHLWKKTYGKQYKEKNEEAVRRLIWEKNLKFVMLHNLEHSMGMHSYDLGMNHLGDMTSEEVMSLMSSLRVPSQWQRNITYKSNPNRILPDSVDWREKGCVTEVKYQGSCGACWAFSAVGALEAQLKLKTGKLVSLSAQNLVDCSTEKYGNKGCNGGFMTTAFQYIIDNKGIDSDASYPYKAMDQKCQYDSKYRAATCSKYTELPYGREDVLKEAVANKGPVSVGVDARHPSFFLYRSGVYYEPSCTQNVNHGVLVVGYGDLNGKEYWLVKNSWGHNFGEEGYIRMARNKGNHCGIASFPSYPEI

As for “purified chicken egg white cystatin (from UniProt P01038 24-139) (natural protein)”, the IC50 of inhibition of enzyme activity (fluorogenic substrate) turned out to be 800 nM in test [1]; 3.2 nM in test [2]; 3.1 nM in test [3]; 39 nM in test [4]; 4.4 nM in test [5]; 2.9 nM in test [6].

For “sialostatin L (from UniProt Q8MVB6 20-133) (natural protein)”, the stoichiometry N in test [7] was found to be 2.
